Test results published in patent US10801046B2, “Methods and materials for biosynthesizing multifunctional, multivariate molecules via carbon chain modification” (INVISTA NORTH AMERICA S.A.R.L., priority 2016, dated 2020).

B1: SEQ ID NO: 185: Granulicatella elegans ATCC 700633 thioesterase (protein)
chain: MTVDVICQIERTILPYECDWKENLLLSQALGMMMLASRKQQQQLQNPNLIYEKGYTWIVIQHEIEIQRMPKVDEEVIIETQAISYNKFFTYREYRILSKEREELFKCITTFAMLDMKARKIVSIDEEVVLEYPLSIGKEMRKATRIPKKDFSDATTGEYKIRINDIDANLHVNNARYFDFAFSELGMEFIEDHQLKQVVIKYEKEVLPESTISCSTLWEENTLESQERRQTYHLISQDGNRCANIQMKWEEIV
modifications: Granulicatella elegans ATCC 700633
notes: Granulicatella elegans ATCC 700633 thioesterase
B2: SEQ ID NO: 182: Firmicutes bacterium CAG:449 thioesterase (protein)
chain: MNYYQKELVLQEKDFINDELSPYSILNYFQDIAGIHADKIGLSHEELIKNDLVWVVLRNKYEIIKMPSINQKVILKTWPHQKGKIDFDREYAIYDENNNLLIKGLSKWILMNYKTRRISMFNNIKYSFECLEETNFENKFNKIEDFDINNFSFIETTTSENDLDINGHVNNASYARIVLNNIDFDITINHFEINYIKEIKANQKLKIYYLKKDNTYYIKAFNNEEVIFVLIVY
modifications: Firmicutes bacterium CAG:449
notes: Firmicutes bacterium CAG:449 thioesterase
B3: SEQ ID NO: 183: Clostridium sp. CAG: 798 thioesterase (protein)
chain: MAIIENKYHIGIKYVDKDRLLSLRGIILLFEDIACRHSDMVGYGINDVTKTHFSWVLLNWKIKVLSRINYGSIVTVKTWSRETSKLYTYRDFEIYDENNNLICIASSKWVLLSTETGHIIHITEEIKNAYLAENKTVFNESDLHKIVEPDNAEKTFSFTVRRRDIDINNHMNNLYYLDYALEALPEEVYSKFFNNVEIMYKYSAKLGETINCFYKEEEDGYYVMMKSATDNILHALVKLY
modifications: Clostridium sp. CAG:798
notes: Clostridium sp; CAG: 798 thioesterase
B4: SEQ ID NO: 187: Eggerthella sp. CAG:1427 thioesterase (protein)
chain: MTIGYEQTYQLRTGDFDRYAHLLPSSILDVFQDVAGVNAEQVPGMTWKELTDAGLFWVVTRIKYEVIETPHLHEQVIARTWPLAPTRLGFQREYTMRKLDGTPLVKCSSDWILMDYKTRSFASARDFYNGPQDFSEEKVFEKKLRKIKTFEPEDTGETFQVHFVDIDINGHVNNSKYPNFVMNSLDLGEDETIKTFQIDYRHELRAGSTVRIHSKRDGNVITSMGISTEGDTAGECMFATQIELA
modifications: Eggerthella sp. CAG:1427
notes: Eggerthella sp; CAG:1427 thioesterase
B5: SEQ ID NO: 184: [Clostridium] ultunense Esp thioesterase (protein)
chain: MKATPLYIKDYKVEINHVDFKGDLKLSSLFTYCQDIAGLHAENLGMGREVLYTQHRVIWVLVRVRVDIIKYPKWKDILTLETWPQEPSRMGFDRDFLIKDKKGNILAKAVSTWVVIDVESRKLVRTKSVYTGYPLVVEKRAIDCKLGNLKSSGELETAYERTVRYSDIDVNEHLNNAKYLDFIMDSFSFEEHRRFNVKSVEISYSNEALLGETIKIYEDRSRIDSNIIYMEGIREGKDLVFKSQIEIEEK
modifications: Clostridium ultunense Esp
notes: [Clostridium] ultunense Esp thioesterase
B6: SEQ ID NO: 95: Aerococcus viridans ATCC 11563 thioesterase (protein)
chain: MINIRHYQGGKRMGLLYQESVKVRHYHCNALGEMTLPAILDIMLIASNNQEATIPEAKEGFRQEGWAWIITQNQIDINRLPRYDEDIIAETEATTYNKFFSKRHYALKTRDGLVLAQAETTFALIDLNQRSIVRIPEIVAEWYQVEKEERPSRRKRLNKEIAVESKLDRFEVKFLDIDLNNHVNNTIYLRWITNSLGMEWFEKYTPTSFTVAYEKEMYLHQEGAVHSDISTVSEDLKSGDTFNSQHVIDSEDKAHCLTEITWQVK
modifications: Aerococcus viridans ATCC 11563 = CCUG 4311
notes: Aerococcus viridans ATCC 11563 thioesterase
B7: SEQ ID NO: 213: Helobdella robusta carboxylate reductase (protein, listed as Helobdella robusta)
chain: MRVSNNGPFLGHRCRFTKQYVWQTYEEIFELCQDFGSALIYKGLKPEDSTVIGIYSHNCVEWNITSETCSMFSMALVPLYDTLGPEACQYIINQTEMTTVVCEGWLKANLILNGLKQAESRTATPLKRLIIITNKDFHMSLKDSVRVSKHFSSSPDLANFADADSLSKNVLETAEKFGVEIPPTPSTINLISYTSGTTGDPKGVVLTHEAVICNISGLLAYDQHHKLFPKCGDFHLSYLPAAHGFERMNQIILMINGGQIGFSSGDILLLLDDIAALRPTIFMCVPRVLNRVYEKVMSNLENKPIKRWLFNFGMQRKLNLLKRGIITKNTIWDKLMFHKIQTLFGGRLEVCISGSAPLSDVVMDFCRGTFGCFVYEGYGQTELCAATMLTLPYEHDTVVVGPPLPNCHIKLIDIPDLDYKAINNMGEICIKSFCRMREYFKEPIKTRETLDEDSYIHTGDVGMWLPNGNLRIIDRRKHVFKLAQGEYVAPEKIENIYAMSPLICQVFVDGNSLQFCPLAVVVPDEDALKRLAERDSRTSKTICPIKICNMEQFCKNEEIRKMIHADMLQRGKKAGLKGFEQVKDIHLHPEKFSIENGLLTPTMKTKRPILRKKFQNIFVEMYEKLNRNVVSTNITTHPLQNL
B8: SEQ ID NO: 215: Schizopora paradoxa carboxylate reductase (protein, listed as Schizopora paradoxa)
chain: MASTLLQDVSPAPPLMISPLEIPLPEPVDFSKQAVEVPGTRRPGQTGHYQNAVWGFKAFPEEGPVYTLPDVFELGLSLEKNGQTSNKPFLGHRPVISAEPLKFASDYVWSTYAEADERRQNVGSALEKYFRDGTLGGGEYQTVGIWSQNRAEWQIVELACHAYGKVSVSLYDTLGKDSVEYIIEHAHLTVIFVTSQHIPLLLAMASKVPMLKLIVSVDELSSEAKRIMGIWSRTANVQVMELSELEQFGKANRLNMARPIGKSLATICYTSGTTSGPKGVLLTHSNLVSSVKSNLRASHFGEKGGIMMSYLPLAHIYERITELCTMALGGQIGFFTGDPLRLLEDASILKPNFFPSVPRVLNRVYQSAMLAGQTPGLKGYLFRTAMDAKLKKLHETGDNTHMLWDRLVFRKIQALLGGNVELVSCGSAPISVDVMDFLKIAFSCDVIEGYGMTENCGTCTRCWPNDPSSSGTVGAPQPCNEIKLVDVPSMNYTSNDKPNPRGEVCLRGNNCFSTYYKDEKNTRETVDEEGWLHTGDVGEIDSAGRLKIIDRIKNIMKLAQGEYVALEKIENVYGLHPLVAQLYVHGESLQDHLVGVIVPDPTQFAILCNSIRGTKIGANDSAELATAARDPAVAQAVLREITHEAKKAALKGFEMIKKIHLTTVPFSTENGLLTPTFKVRRKDCSIYFKEELAALYAQPTSMLK
B9: SEQ ID NO: 214: Mycobacterium lepromatosis carboxylate reductase (protein, listed as Mycobacterium lepromatosis)
chain: MSTTNTQEEQLARRVDYLTANDPQFAAAKPDPAVVAALAQPGLRLPQIIQTTLDGYAERPALGQRVVEFIKDPKTGRTSIELLPCFETITYRELSDRVGALARAWIHDLLHAGDRVCVLGFNSVDYAIIDMALGVISAVAVPLQTSAAITQLQPIVIETEPRVIAASVNQLPDTVELILSGPAPAKLVVFDYHPEADEQRDAVATARERLVDNNVVVESLIEVLDRGKTLPATPIPVADDSDDPLALLIYTSGSTGAPKGAMYPQSNVGKMWRRSDGNWFRSTAASITLNFMPMSHVMGHGILYGTLGNGGTAYFAARSDLSTLLEDLKLVRPTELNFVPRIWETLYDECQHAVDRRLTNSGSADRAAIEAEVMDEQRQSLLGGRYIAAMTGSAPTSPELKHGVESLLEMHLLEGYGSTEAGMVLFDGEVQRPPVIDYKLVDVPDLGYFSTDQPYPRGELLLKTQNMFPGYYKRPEVTATVFDGDGYYQTGDIVAEVGPARLVYVDRRNNVLKLAQGQFVTVAQLEAAFSNSPLVRQIYIYGNSAHPYLLAVVVPTEDALATNDIEALKPLIIDSLQEVAKEAELQSYEVPRDLIIETTPFSLENGLLTGIRKLAWPKLKQHYGARLEQLYADLAEGQTNALHALRQSGAEAPVLQTVSRAAGTILGAATTDLPSNAHFTDLGGDSLSALTFSNLLRELFNIDVPVGVIVSPVNDLAAIADYIESEQQGTKRPTFTAIHGRDAGEVHASDLTLDKFIDVSTLTAAPMLAQPDAEVRTVLLTGATGFLGRYLALKWLERMDLVDGKVIALVRAKSNEEARARLGKTFDSGDPKLLAHYQELAADHLEVIAGDKGEVELELDRQTWRRLADTVDLIVDPAALVNHVLPYSELFGPNALGTAELIRIALTSKQKPYIYVSTIGVGDQIEPAKFTEDSDIRVTSPTRKINDNYANGYGNSKWAGEVLLREAHELCGLPVAVFRCDMILADTSYAGQLNVPDMFTRMMLSLAATGIAPGSFYELDAESNRQRAHYDGLPVEFIAEAISTLGAQSLHGRDGFATYHVMNPHDDGIGMDEFVDWLIDAGCPIQRINDYDEWLRRFEISLRALPERQRHNSLLPLLHNYQKPEKPLNGSLAPTDRFRTAVQESKIVQDKDIPHISSAIIGKYVSDLQLLGLLRRQADRSPARVPS
B10: SEQ ID NO: 212: Anisakis simplex carboxylate reductase (protein)
chain: MYERLLHCIGYQVGLRFGFFGGDVNRLIDDIKELHPTVIPLVPRVLNRFHDTVMAKVNKSFLKRIIFNLALAFKYRELSRSIIRNDSLVDRYVFKRVREELGGRARFSMIGSAPVHGDILRFSRAVLGYVIVEGYGATECAAGTSAVIEADPITEHIGIPLACAAIKLVDVPELGYYAKDQAGEICYRGAHVFKGYFKNDEGTKEVLDADGWLHSGDIGRWTERGTLKIVDRKKHIFKLQQGEYIAPEKIEAVYDRSEYVVQSFVYGESLKTCLVAIIVPDQEIVLRDAKQKLDLAETDFAKLCRNDAVKKMILNDLTIVGRKAGLNSFEQVKDIYLSVERFTIANDLLTPTMKNKRPQIKSHFMKELNEMYSKLK
modifications: Anisakis simplex
notes: Anisakis simplex carboxylate reductase

Test system: heptanedioyl-ACP
Assay: Cell lysate in vitro thioesterase screen (DTNB, absorbance at 410 nm) on heptanedioyl-ACP
Format: biochemical
Settings: 0.33 mM acyl-ACP substrate, 30° C., 30 min

| Molecule | activity toward heptanedioyl-ACP (hydrolysis) |
| --- | --- |
| B1 | notable for their activity toward heptanedioyl-ACP |
| B2 | notable for their activity toward heptanedioyl-ACP |
| B3 | notable for their activity toward heptanedioyl-ACP |
| B4 | notable for their activity toward heptanedioyl-ACP |
| B5 | notable for their activity toward heptanedioyl-ACP |
| B6 | notable for their activity toward heptanedioyl-ACP |

Test system: not listed separately
Assay: In vivo carboxylate reductase screening, substrate consumption by LC-MS, monomethyl heptanedioate
Format: cell-based, Escherichia coli
Settings: 541 enzymes screened in vivo
Experimental: To screen carboxylate reductases in vivo, […] T7- pUC expression vectors was co-transformed into T7 Express lysY/Iq with the phosphopantetheinyl transferase sfp from Bacillus subtilis on a T7-pCDF expression vector. Biological duplicates of the resulting strains were incubated in 0.5 mL of terrific broth containing either 1 g/L heptanedioate or 1 g/L monomethyl heptanedioate and supplemented with 0.4 mM IPTG in 96-well deep well plates. The plates were incubated for 30 h at 30° C. in a shaking incubator. The cells were then pelleted, and culture supernatants from the same strains in media containing either heptanedioate or monomethyl heptanedioate were combined. The combined supernatants were analyzed by LC-MS to determine the concentration of heptanedioate and monomethyl heptanedioate. Carboxylate reductase activity on heptanedioate or monomethyl heptanedioate was reflected by consumption of the respective substrate in the medium.

| Molecule | monomethyl heptanedioate activity |
| --- | --- |
| B7 | most monomethyl heptanedioate activity |
| B8 | most monomethyl heptanedioate activity |
| B9 | most monomethyl heptanedioate activity |
| B10 | most monomethyl heptanedioate activity |
